# Reference: paper PMC9228748, “The Denaturant- and Mutation-Induced Disassembly of Pseudomonas aeruginosa Hexameric Hfq Y55W Mutant” (Molecules, 2022)
# Values joined by “and” are separate entries in the source; they are usually repeats but may differ in a detail not shown here. Equal entries are not always repeated.
# What was measured:
# [1] = molecular target: the molecule itself; test: crystal structure; hanging drop vapor diffusion at 25 °C; 7% PEG 2000 MME, 2% MPD, 50 mM Tris-HCl pH 6.5; asymmetric part holds three subunits, hexamer by crystallographic symmetry
# [2] = molecular target: the molecule itself; test: dynamic light scattering; pH 1.4, 100 µM protein (monomer), 25 °C
protein,measurement,setting,value
"Pseudomonas aeruginosa Hfq Y55W mutant (natural protein, also called Y55W (hexamer); Pae Hfq Y55W) MSKGHSLQDPYLNTLRKERVPVSIYLVNGIKLQGQIESFDQFVILLKNTVSQMVWKHAISTVVPSRPVRLPSGDQPAEPGNA",stoichiometry N,[1],6
same,stoichiometry N,[2],3 and 2
